Assay results taken from patent US20180155451A1 (published 2018).

T1: FcγRIIb extracellular domain with C-terminal His tag (human, UniProt P31994 43-217)
T1 construct: extracellular domain; also called FcgRIIb; 2b; not shown: His tag attached to the C terminus
T1 sequence (looked up): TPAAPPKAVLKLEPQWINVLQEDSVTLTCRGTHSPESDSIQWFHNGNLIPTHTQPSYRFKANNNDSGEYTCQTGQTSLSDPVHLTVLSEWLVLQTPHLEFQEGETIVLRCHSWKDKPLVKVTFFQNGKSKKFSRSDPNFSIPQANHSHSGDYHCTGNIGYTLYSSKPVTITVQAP


Key:
[1] = target: T2, FcγRIIIa extracellular domain with C-terminal His tag (human, UniProt P08637 17-208); assay: SPR (Biacore); He/Con_3a divided by He/Con_2b (reference: binding to FcγRIIb)
T2 construct: extracellular domain; also called FcgRIIIa; 3a; not shown: His tag attached to the C terminus
T2 sequence (P08637 17-208): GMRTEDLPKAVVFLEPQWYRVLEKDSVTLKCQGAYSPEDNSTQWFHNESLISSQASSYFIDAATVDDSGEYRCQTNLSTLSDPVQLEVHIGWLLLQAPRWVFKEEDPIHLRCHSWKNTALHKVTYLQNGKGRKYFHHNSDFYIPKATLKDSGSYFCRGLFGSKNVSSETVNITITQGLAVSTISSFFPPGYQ
Protocol: (§1) Analysis of interaction between objective antibody and the FcγR was carried out using Biacore T100 (GE Healthcare). HBS-EP+ (GE Healthcare) was used as the running buffer, and the measurement temperature was set to 25° C. Chips produced by immobilizing the antigen peptide by the amine coupling method to a Series S Sencor Chip CM5 (GE Healthcare), or alternatively, chips produced by allowing preliminarily biotinylated antigen peptides to interact with and immobilize onto a Series S Sensor Chip SA (certified) (GE Healthcare) were used. Antibodies of interest were captured onto an antigen peptide-immobilized chip, and allowed to interact to each FcγR diluted with running buffer. To regenerate and repeatedly use the chip, the antibodies captured on the chip were washed off by reacting 10 mM glycine-HCl, pH 1.5.
(§2) The FcγR-binding activity of each antibody was assessed primarily using as an indicator the FcγR-binding activity and dissociation constant for FcγR.

[2] = target: T2, FcγRIIIa extracellular domain with …; assay: SPR (Biacore), relative binding
Protocol: as §1, §2

[3] = target: T1, FcγRIIb extracellular domain with …; assay: SPR (Biacore), relative binding
Protocol: as §1, §2

He_3a/2b (IIIa/IIb) [1] [ratio]	He/Con_3a (IIIa binding) [2]	He/Con_2b (IIb binding) [3]	Binder
0.65	114 % of GpH7-A5/GpH7-B3/GpL16-k0 (=100)	177 % of GpH7-A5/GpH7-B3/GpL16-k0 (=100)	GpH7-A5/GpH7-B3 variant K326_08L/GpL16-k0 (antibody, human IgG1, kappa, Heterodimerized IgG1; alteration in one H chain only; also called He Ab) heavy 1: not shown heavy 2: not shown light: DIVMTQSPLSLPVTPGEPASISCQASESLVHSNRNTYLHWYLQKPGQSPQLLIYKVSNRFSGVPDRFSGSGSGTDFTLKISRVEAEDVGVYYCSQNTHVPPTFGQGTKVEIERTVAAPSVFIFPPSDEQLKSGTASVVCLLNNFYPREAKVQWKVDNALQSGNSQESVTEQDSKDSTYSLSSTLTLSKADYEKHKVYACEVTHQGLSSPVTKSFNRGEC
0.66	103 % of GpH7-A5/GpH7-B3/GpL16-k0 (=100)	155 % of GpH7-A5/GpH7-B3/GpL16-k0 (=100)	GpH7-A5/GpH7-B3 variant K326_04F/GpL16-k0 (antibody, human IgG1, kappa, Heterodimerized IgG1; alteration in one H chain only; also called He Ab) heavy 1: not shown heavy 2: not shown light: DIVMTQSPLSLPVTPGEPASISCQASESLVHSNRNTYLHWYLQKPGQSPQLLIYKVSNRFSGVPDRFSGSGSGTDFTLKISRVEAEDVGVYYCSQNTHVPPTFGQGTKVEIERTVAAPSVFIFPPSDEQLKSGTASVVCLLNNFYPREAKVQWKVDNALQSGNSQESVTEQDSKDSTYSLSSTLTLSKADYEKHKVYACEVTHQGLSSPVTKSFNRGEC
0.62	124 % of GpH7-A5/GpH7-B3/GpL16-k0 (=100)	200 % of GpH7-A5/GpH7-B3/GpL16-k0 (=100)	GpH7-A5/GpH7-B3 variant K326_10E/GpL16-k0 (antibody, human IgG1, kappa, Heterodimerized IgG1; alteration in one H chain only; also called He Ab) heavy 1: not shown heavy 2: not shown light: DIVMTQSPLSLPVTPGEPASISCQASESLVHSNRNTYLHWYLQKPGQSPQLLIYKVSNRFSGVPDRFSGSGSGTDFTLKISRVEAEDVGVYYCSQNTHVPPTFGQGTKVEIERTVAAPSVFIFPPSDEQLKSGTASVVCLLNNFYPREAKVQWKVDNALQSGNSQESVTEQDSKDSTYSLSSTLTLSKADYEKHKVYACEVTHQGLSSPVTKSFNRGEC
0.56	44.9 % of GpH7-A5/GpH7-B3/GpL16-k0 (=100)	80.2 % of GpH7-A5/GpH7-B3/GpL16-k0 (=100)	GpH7-A5/GpH7-B3 variant L328_01G/GpL16-k0 (antibody, human IgG1, kappa, Heterodimerized IgG1; alteration in one H chain only; also called He Ab) heavy 1: not shown heavy 2: not shown light: DIVMTQSPLSLPVTPGEPASISCQASESLVHSNRNTYLHWYLQKPGQSPQLLIYKVSNRFSGVPDRFSGSGSGTDFTLKISRVEAEDVGVYYCSQNTHVPPTFGQGTKVEIERTVAAPSVFIFPPSDEQLKSGTASVVCLLNNFYPREAKVQWKVDNALQSGNSQESVTEQDSKDSTYSLSSTLTLSKADYEKHKVYACEVTHQGLSSPVTKSFNRGEC

Second part, the binder before the results:

Binder	He_3a/2b (IIIa/IIb) [1] [ratio]	He/Con_3a (IIIa binding) [2]	He/Con_2b (IIb binding) [3]
GpH7-A5/GpH7-B3 variant A327_10E/GpL16-k0 (antibody, human IgG1, kappa, Heterodimerized IgG1; alteration in one H chain only; also called He Ab) heavy 1: not shown heavy 2: not shown light: DIVMTQSPLSLPVTPGEPASISCQASESLVHSNRNTYLHWYLQKPGQSPQLLIYKVSNRFSGVPDRFSGSGSGTDFTLKISRVEAEDVGVYYCSQNTHVPPTFGQGTKVEIERTVAAPSVFIFPPSDEQLKSGTASVVCLLNNFYPREAKVQWKVDNALQSGNSQESVTEQDSKDSTYSLSSTLTLSKADYEKHKVYACEVTHQGLSSPVTKSFNRGEC	0.49	68.6 % of GpH7-A5/GpH7-B3/GpL16-k0 (=100)	140 % of GpH7-A5/GpH7-B3/GpL16-k0 (=100)
GpH7-A5/GpH7-B3 variant K326_03V/GpL16-k0 (antibody, human IgG1, kappa, Heterodimerized IgG1; alteration in one H chain only; also called He Ab) heavy 1: not shown heavy 2: not shown light: DIVMTQSPLSLPVTPGEPASISCQASESLVHSNRNTYLHWYLQKPGQSPQLLIYKVSNRFSGVPDRFSGSGSGTDFTLKISRVEAEDVGVYYCSQNTHVPPTFGQGTKVEIERTVAAPSVFIFPPSDEQLKSGTASVVCLLNNFYPREAKVQWKVDNALQSGNSQESVTEQDSKDSTYSLSSTLTLSKADYEKHKVYACEVTHQGLSSPVTKSFNRGEC	0.7	122 % of GpH7-A5/GpH7-B3/GpL16-k0 (=100)	175 % of GpH7-A5/GpH7-B3/GpL16-k0 (=100)
GpH7-A5/GpH7-B3 variant A327_18N/GpL16-k0 (antibody, human IgG1, kappa, Heterodimerized IgG1; alteration in one H chain only; also called He Ab) heavy 1: not shown heavy 2: not shown light: DIVMTQSPLSLPVTPGEPASISCQASESLVHSNRNTYLHWYLQKPGQSPQLLIYKVSNRFSGVPDRFSGSGSGTDFTLKISRVEAEDVGVYYCSQNTHVPPTFGQGTKVEIERTVAAPSVFIFPPSDEQLKSGTASVVCLLNNFYPREAKVQWKVDNALQSGNSQESVTEQDSKDSTYSLSSTLTLSKADYEKHKVYACEVTHQGLSSPVTKSFNRGEC	0.54	61.1 % of GpH7-A5/GpH7-B3/GpL16-k0 (=100)	113 % of GpH7-A5/GpH7-B3/GpL16-k0 (=100)
GpH7-A5/GpH7-B3 variant A327_15Y/GpL16-k0 (antibody, human IgG1, kappa, Heterodimerized IgG1; alteration in one H chain only; also called He Ab) heavy 1: not shown heavy 2: not shown light: DIVMTQSPLSLPVTPGEPASISCQASESLVHSNRNTYLHWYLQKPGQSPQLLIYKVSNRFSGVPDRFSGSGSGTDFTLKISRVEAEDVGVYYCSQNTHVPPTFGQGTKVEIERTVAAPSVFIFPPSDEQLKSGTASVVCLLNNFYPREAKVQWKVDNALQSGNSQESVTEQDSKDSTYSLSSTLTLSKADYEKHKVYACEVTHQGLSSPVTKSFNRGEC	0.77	46.8 % of GpH7-A5/GpH7-B3/GpL16-k0 (=100)	60.8 % of GpH7-A5/GpH7-B3/GpL16-k0 (=100)
